The target in assay [1] is T1, integrin αvβ6 (human, UniProt P06756).
T1 chain 1: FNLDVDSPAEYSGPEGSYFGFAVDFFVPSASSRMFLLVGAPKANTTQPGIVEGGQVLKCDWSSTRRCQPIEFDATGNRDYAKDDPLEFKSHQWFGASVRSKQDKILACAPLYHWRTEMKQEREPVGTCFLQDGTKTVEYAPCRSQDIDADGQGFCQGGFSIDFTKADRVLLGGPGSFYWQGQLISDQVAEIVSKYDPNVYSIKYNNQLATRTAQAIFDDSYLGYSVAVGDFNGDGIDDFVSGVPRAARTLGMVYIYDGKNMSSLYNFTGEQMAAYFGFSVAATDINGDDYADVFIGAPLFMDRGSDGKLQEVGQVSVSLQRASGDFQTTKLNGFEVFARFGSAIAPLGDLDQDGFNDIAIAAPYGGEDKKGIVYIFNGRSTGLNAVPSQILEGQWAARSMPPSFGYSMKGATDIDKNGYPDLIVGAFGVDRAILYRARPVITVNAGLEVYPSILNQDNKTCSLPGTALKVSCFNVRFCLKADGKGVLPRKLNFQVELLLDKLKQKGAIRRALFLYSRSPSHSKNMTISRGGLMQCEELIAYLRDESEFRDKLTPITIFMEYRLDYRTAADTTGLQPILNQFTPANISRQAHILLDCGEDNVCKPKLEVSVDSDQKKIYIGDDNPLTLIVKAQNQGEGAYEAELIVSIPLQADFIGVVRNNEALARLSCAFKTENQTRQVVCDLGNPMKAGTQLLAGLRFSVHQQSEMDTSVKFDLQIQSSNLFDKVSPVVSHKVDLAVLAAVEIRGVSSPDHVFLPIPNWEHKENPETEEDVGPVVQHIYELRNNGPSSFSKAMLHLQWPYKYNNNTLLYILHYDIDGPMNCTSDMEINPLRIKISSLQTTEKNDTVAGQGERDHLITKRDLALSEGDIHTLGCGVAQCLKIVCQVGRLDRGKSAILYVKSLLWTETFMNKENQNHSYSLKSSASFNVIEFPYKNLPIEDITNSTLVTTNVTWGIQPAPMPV
T1 chain 2: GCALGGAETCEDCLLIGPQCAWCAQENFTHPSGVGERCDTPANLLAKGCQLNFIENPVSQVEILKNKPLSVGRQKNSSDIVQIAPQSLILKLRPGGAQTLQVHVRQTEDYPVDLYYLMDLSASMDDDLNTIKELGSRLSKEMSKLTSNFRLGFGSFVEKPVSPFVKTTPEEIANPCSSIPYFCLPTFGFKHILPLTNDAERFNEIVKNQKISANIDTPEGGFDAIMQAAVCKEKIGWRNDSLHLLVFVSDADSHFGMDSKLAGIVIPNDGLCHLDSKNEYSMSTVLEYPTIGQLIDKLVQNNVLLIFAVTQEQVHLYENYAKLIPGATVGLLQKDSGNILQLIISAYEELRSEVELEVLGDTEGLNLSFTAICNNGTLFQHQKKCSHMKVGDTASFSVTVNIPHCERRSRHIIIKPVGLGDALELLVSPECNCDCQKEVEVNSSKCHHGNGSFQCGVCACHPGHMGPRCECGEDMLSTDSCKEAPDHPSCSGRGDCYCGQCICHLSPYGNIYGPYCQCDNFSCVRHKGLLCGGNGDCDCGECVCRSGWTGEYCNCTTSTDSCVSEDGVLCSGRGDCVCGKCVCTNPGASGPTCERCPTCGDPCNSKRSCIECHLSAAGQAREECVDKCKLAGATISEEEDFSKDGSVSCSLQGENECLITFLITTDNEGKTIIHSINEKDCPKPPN
Put plainly: BLI, at 500 nM.

In assay [2] the target is T2, integrin αvβ8 (human, UniProt P06756).
T2 chain 1: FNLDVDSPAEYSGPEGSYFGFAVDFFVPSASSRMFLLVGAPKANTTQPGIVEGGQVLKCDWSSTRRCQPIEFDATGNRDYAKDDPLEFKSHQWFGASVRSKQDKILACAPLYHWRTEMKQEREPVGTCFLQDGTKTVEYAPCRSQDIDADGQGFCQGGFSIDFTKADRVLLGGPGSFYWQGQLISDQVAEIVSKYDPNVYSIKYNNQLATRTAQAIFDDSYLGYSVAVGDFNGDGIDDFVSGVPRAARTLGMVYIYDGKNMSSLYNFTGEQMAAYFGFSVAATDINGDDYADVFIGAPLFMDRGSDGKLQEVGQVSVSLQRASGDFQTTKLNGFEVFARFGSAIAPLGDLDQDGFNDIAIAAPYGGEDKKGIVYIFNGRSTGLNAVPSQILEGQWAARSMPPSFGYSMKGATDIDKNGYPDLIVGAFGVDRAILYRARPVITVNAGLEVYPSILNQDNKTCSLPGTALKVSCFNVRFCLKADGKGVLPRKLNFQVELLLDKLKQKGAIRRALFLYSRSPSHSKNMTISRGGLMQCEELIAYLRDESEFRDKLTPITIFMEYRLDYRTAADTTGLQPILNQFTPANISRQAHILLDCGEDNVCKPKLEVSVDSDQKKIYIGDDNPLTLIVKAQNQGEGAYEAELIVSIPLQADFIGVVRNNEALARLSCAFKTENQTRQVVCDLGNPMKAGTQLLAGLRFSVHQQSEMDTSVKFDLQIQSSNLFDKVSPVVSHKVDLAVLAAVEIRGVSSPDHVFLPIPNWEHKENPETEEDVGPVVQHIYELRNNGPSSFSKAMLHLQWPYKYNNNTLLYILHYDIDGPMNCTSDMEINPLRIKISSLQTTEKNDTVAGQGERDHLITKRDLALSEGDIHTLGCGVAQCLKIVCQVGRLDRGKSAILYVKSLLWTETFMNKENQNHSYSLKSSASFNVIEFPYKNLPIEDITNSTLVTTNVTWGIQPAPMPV
T2 chain 2: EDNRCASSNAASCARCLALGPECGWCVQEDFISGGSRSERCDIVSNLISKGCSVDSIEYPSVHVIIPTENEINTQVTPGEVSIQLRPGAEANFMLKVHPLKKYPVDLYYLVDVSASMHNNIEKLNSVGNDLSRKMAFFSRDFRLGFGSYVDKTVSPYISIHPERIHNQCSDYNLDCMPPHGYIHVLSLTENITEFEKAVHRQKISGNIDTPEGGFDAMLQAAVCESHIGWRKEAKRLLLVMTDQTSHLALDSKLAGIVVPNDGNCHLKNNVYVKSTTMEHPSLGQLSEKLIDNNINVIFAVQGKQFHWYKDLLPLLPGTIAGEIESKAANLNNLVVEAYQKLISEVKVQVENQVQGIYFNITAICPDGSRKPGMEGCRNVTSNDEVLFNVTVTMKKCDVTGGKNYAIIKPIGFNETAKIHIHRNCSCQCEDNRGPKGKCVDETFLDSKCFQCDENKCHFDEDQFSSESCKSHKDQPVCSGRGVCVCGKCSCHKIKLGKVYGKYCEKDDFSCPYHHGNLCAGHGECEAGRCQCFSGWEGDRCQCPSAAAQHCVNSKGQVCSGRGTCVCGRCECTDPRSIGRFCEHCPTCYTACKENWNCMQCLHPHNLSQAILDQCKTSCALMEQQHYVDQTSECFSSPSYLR
Nature of the assay: BLI.

The target of assay [3] is T1, integrin αvβ6. Nature of the assay: competition, hLAP1.
The target of assay [4] is T2, integrin αvβ8. Nature of the assay: competition, hLAP1.
The target in assay [5] is T1, integrin αvβ6. Put plainly: BLI.

B1: B8_BP-LATY (avb8_3_LATY) (designed binder)
chain: TKCVVRFNFRGDLATYALKAVKDHLKKEGPHWNITTHNDDEVYLVVRGIHESDAKRIAKWVESTIPGISVETQCD
Consider B1, for which, in assay [1], the binding result is listed as “no binding”. In addition, the equilibrium dissociation constant (Kd) in assay [2] turned out to be 0.5 nM.

B2: B8_BP_dslf (avb8_3) (designed binder)
chain: TKCVVRFNFRGDMAVYALKAVKDHLKKEGPHWNITTHNDDEVYLVVRGIHESDAKRIAKWVESTIPGISVETQCD
For the molecule B2, in assay [3], the binding result was “no binding”. The half-inhibitory concentration (IC50) in assay [4] worked out at 2.68 nM. Also, the Kd in assay [2] was 1.9 nM.

B3: avb8_12 (LATI) (designed binder)
chain: TKCVVRFNFRGDLATIALKAVKDHLKKEGPHWNITTHNDDEVYLVVRGIHESDAKRIAKWVESTIPGISVETQCD
The molecule B3 showed a dissociation constant (Kd) in assay [5] of 1.13 nM.

(Values after patent US20260297135 (published 2026).)
